# Test results taken from US20250186594A1 (BRIGHT PEAK THERAPEUTICS, published 2025).
# Positions count from the first letter of the chain named. Numbers in names are those of the source.
# B1: IL-18 variant SEQ ID NO: 240 (E6R, V11I, C38A, K53A, T63A, C76A, C127A) (ligand)
# chain: YFGKLRSKLSIIRNLNDQVLFIDQGNRPLFEDMTDSDARDNAPRTIFIISMYADSQPRGMAVAISVKCEKISTLSAENKIISFKEMNPPDNIKDTKSDIIFFQRSVPGHDNKMQFESSSYEGYFLAAEKERDLFKLILKKEDELGDRSIMFTVQNED
# B2: IL-18 variant SEQ ID NO: 208 (V11I, C38A, K53A, D54A, C76A, C127A) (ligand)
# chain: B1 chain with R6E, D54A, A63T
# B3: IL-18 variant SEQ ID NO: 218 (V11I, C38A, K53A, C76A, C127A, D132A) (ligand)
# chain: B1 chain with R6E, A63T, D132A
# B4: IL-18 variant SEQ ID NO: 227 (V11I, C38A, S55T, C76A, C127A) (ligand)
# chain: B1 chain with R6E, A53K, S55T, A63T
# B5: IL-18 variant SEQ ID NO: 234 (E6K, V11I, C38A, K53A, T63A, C76A, Q103R, C127A) (ligand)
# chain: B1 chain with R6K, Q103R
# B6: IL-18 variant SEQ ID NO: 224 (V11I, C38A, C76A, Q103K, C127A) (ligand)
# chain: B1 chain with R6E, A53K, A63T, Q103K
# B7: IL-18 variant SEQ ID NO: 205 (V11I, C38A, K53A, T63A, C76A, C127A) (ligand)
# chain: B1 chain with R6E
# B8: IL-18 variant SEQ ID NO: 232 (E6K, V11I, C38A, I49M, K53A, T63A, C76A, C127A) (ligand)
# chain: B1 chain with R6K, I49M
# B9: IL-18 variant SEQ ID NO: 213 (V11I, S36A, C38A, K53A, C76A, C127A) (ligand)
# chain: B1 chain with R6E, S36A, A63T
# B10: IL-18 variant SEQ ID NO: 219 (V11I, C38A, K53A, C76A, G108A, C127A) (ligand)
# chain: B1 chain with R6E, A63T, G108A
# B11: IL-18 variant SEQ ID NO: 212 (V11I, D35A, C38A, K53A, C76A, C127A) (ligand)
# chain: B1 chain with R6E, D35A, A63T
# B12: IL-18 variant SEQ ID NO: 222 (K8R, V11I, C38A, C76A, Q103E, C127A) (ligand)
# chain: B1 chain with R6E, K8R, A53K, A63T, Q103E
# B13: IL-18 variant SEQ ID NO: 216 (V11I, C38A, D40A, K53A, C76A, C127A) (ligand)
# chain: B1 chain with R6E, D40A, A63T
# B14: IL-18 variant SEQ ID NO: 230 (K8L, E6K, V11I, C38A, K53A, T63A, C76A, C127A) (ligand)
# chain: B1 chain with R6K, K8L
# B15: IL-18 variant SEQ ID NO: 228 (V11I, C38A, C76A, S105I, C127A) (ligand)
# chain: B1 chain with R6E, A53K, A63T, S105I
# B16: IL-18 variant SEQ ID NO: 214 (V11I, D37A, C38A, K53A, C76A, C127A) (ligand)
# chain: B1 chain with R6E, D37A, A63T
# B17: IL-18 variant SEQ ID NO: 217 (V11I, C38A, N41A, K53A, C76A, C127A) (ligand)
# chain: B1 chain with R6E, N41A, A63T
# B18: IL-18 variant SEQ ID NO: 233 (E6K, V11I, C38A, I49R, K53A, T63A, C76A, C127A) (ligand)
# chain: B1 chain with R6K, I49R
# B19: IL-18 variant SEQ ID NO: 235 (E6K, K8E, V11I, C38A, K53A, T63A, C76A, Q103R, C127A) (ligand)
# chain: B1 chain with R6K, K8E, Q103R
# B20: IL-18 variant SEQ ID NO: 206 (V11I, C38A, K53A, S55A, C76A, C127A) (ligand)
# chain: B1 chain with R6E, S55A, A63T
# B21: IL-18 variant SEQ ID NO: 204 (V11I, C38A, K53A, C76A, C127A) (ligand)
# chain: B1 chain with R6E, A63T
# B22: IL-18 variant SEQ ID NO: 229 (V11I, C38A, C76A, S105K, C127A) (ligand)
# chain: B1 chain with R6E, A53K, A63T, S105K
# B23: IL-18 variant SEQ ID NO: 225 (V11I, C38A, S55H, C76A, C127A) (ligand)
# chain: B1 chain with R6E, A53K, S55H, A63T
# B24: IL-18 variant SEQ ID NO: 209 (F2A, V11I, C38A, K53A, C76A, C127A) (ligand)
# chain: B1 chain with F2A, R6E, A63T
# B25: IL-18 variant SEQ ID NO: 221 (V11I, C38A, K53A, C76A, D110A, C127A) (ligand)
# chain: B1 chain with R6E, A63T, D110A
# B26: IL-18 variant SEQ ID NO: 211 (V11I, T34A, C38A, K53A, C76A, C127A) (ligand)
# chain: B1 chain with R6E, T34A, A63T
# B27: IL-18 variant SEQ ID NO: 210 (V11I, E31A, C38A, K53A, C76A, C127A) (ligand)
# chain: B1 chain with R6E, E31A, A63T
# B28: IL-18 variant SEQ ID NO: 223 (K8E, V11I, C38A, C76A, Q103R, C127A) (ligand)
# chain: B1 chain with R6E, K8E, A53K, A63T, Q103R
# B29: IL-18 variant SEQ ID NO: 243 (Y1M, E6K, V11I, C38A, K53A, T63A, C76A, C127A) (ligand)
# chain: B1 chain with Y1M, R6K
# B30: IL-18 variant SEQ ID NO: 220 (V11I, C38A, K53A, C76A, H109A, C127A) (ligand)
# chain: B1 chain with R6E, A63T, H109A
# B31: IL-18 variant SEQ ID NO: 226 (V11I, C38A, S55R, C76A, C127A) (ligand)
# chain: B1 chain with R6E, A53K, S55R, A63T
# B32: IL-18 variant SEQ ID NO: 215 (V11I, E31A, D37A, C38A, K53A, C76A, C127A) (ligand)
# chain: B1 chain with R6E, E31A, D37A, A63T
# B33: IL-18 variant SEQ ID NO: 62 with 30 kDa PEG (E6K, C38A, K53A, C127A, C68-30kPEG) (ligand)
# chain: B1 chain with R6K, I11V, A63T, A76C
# modifications: 30 kDa PEG on Cys 68 (C68-30kPEG)
# notes: also called 62 + PEG
# How the values were obtained:
# [1] = biological target: T1, IL-18 receptor (IL-18R) on HEK-Blue IL18R reporter cells (UniProt Q13478 19-541; O95256 20-599, limits assumed); experiment: cell-based or functional assay
# T1 sequence (looked up) 1: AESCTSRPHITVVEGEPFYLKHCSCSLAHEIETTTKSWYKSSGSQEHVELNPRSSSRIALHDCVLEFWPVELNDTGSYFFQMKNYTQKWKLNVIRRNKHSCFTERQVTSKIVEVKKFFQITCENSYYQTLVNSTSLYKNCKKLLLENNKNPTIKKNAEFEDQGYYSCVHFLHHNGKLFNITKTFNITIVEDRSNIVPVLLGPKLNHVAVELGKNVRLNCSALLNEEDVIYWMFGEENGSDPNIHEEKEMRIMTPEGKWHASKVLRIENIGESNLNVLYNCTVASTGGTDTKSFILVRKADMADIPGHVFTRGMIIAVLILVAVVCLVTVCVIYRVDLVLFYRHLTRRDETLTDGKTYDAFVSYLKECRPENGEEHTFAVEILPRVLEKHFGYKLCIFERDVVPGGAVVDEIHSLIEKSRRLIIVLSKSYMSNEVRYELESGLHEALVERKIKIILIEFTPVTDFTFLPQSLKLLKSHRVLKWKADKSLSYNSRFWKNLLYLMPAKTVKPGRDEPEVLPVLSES
# T1 sequence (looked up) 2: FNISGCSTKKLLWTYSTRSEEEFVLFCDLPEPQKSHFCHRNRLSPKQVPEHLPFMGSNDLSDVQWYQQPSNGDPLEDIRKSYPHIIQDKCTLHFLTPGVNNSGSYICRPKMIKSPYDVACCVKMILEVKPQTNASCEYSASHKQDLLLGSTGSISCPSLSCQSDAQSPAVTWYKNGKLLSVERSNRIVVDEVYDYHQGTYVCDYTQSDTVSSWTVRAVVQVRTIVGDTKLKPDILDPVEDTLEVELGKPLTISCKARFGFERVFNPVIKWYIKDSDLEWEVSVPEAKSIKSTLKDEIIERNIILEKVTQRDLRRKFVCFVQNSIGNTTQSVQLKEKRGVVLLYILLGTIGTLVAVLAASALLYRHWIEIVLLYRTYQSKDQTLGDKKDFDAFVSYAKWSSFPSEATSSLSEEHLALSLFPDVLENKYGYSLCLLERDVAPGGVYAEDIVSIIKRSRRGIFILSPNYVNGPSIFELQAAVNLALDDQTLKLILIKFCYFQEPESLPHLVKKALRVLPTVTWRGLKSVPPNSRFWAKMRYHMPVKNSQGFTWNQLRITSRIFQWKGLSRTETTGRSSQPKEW
# [2] = biological target: T2, IL-18Rα/β heterodimer (Fc fused human IL-18Rα mixed with Fc fused human IL-18Rβ) (human, UniProt Q13478 19-329; O95256 20-356, limits assumed); experiment: SPR, Fc-IL-18Rα/β captured, heterogeneous ligand fit
# T2 construct: Alpha and beta Fc fusions were mixed and pre-incubated for 30 min before capture on anti-human IgG; also called alpha/beta heterodimer IL-18 receptor; heterodimeric human IL-18 receptor alpha (CD218a) and IL-18R accessory protein (IL-18RAP/CDw218b); not shown: Fc
# T2 sequence (looked up) 1: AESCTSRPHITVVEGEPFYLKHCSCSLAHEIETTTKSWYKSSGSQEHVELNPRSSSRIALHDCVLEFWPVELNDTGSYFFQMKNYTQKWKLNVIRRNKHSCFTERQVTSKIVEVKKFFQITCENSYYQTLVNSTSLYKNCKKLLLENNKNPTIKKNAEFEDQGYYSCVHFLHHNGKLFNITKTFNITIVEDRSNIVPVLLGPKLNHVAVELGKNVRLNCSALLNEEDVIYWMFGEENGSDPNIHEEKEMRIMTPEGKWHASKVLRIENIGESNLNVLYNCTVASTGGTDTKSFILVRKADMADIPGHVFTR
# T2 sequence (looked up) 2: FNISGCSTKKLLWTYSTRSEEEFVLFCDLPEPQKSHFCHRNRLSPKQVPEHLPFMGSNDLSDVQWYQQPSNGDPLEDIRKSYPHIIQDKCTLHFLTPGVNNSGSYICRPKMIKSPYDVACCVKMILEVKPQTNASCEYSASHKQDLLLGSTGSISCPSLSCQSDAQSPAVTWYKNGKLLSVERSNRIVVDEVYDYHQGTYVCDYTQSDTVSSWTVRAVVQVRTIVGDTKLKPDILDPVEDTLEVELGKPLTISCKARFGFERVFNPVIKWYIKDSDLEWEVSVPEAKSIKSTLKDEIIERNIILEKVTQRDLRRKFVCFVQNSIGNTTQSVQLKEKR
# Method: The interaction of the wild type and of modified IL-18 polypeptides with human IL-18 receptor subunits are measured with Surface Plasmon Resonance (SPR) technology. Anti-human IgG antibodies are bound by amine coupling onto a CM5 chip to capture 6 µg/mL of Fc fused human IL-18Rα, […] of Fc fused human IL-18Rβ, or […] of Fc fused human IL-18BP isoform a (IL-18BPa) for 30 min before capture. In other settings, […] of alpha and beta IL-18 receptors are mixed and pre-incubated for 30 min before capture of the alpha/beta heterodimer IL-18 receptor.
# The kinetic binding of the IL-18 analytes are measured with a Biacore 8K instrument in two fold serial dilutions starting at […] down to 0.98 nM. Regeneration of the surface back to amine coupled anti IgG antibody is done after every concentration of analyte. To measure the protein association to the receptors, the samples are injected with a flow rate of […] for 60 s, followed by 300 s buffer only to detect the dissociation. The used running buffer is 1×PBS with 0.05% Tween20. The relative response units (RU, Y-axis) are plotted against time (s, X-axis) and analyzed in a kinetic 1:1 binding model for the monomer receptor binding and for the binding to the IL-18BP. A kinetic heterogenous ligand fit model is applied for the alpha/beta heterodimer binding.
"EC50, HEK-Blue IL18R reporter [1] [nM]",also measured,Binder
0.04,–,B1
1,–,B2
1.95,–,B3
4.73,–,B4
0.26,–,B5
1.5,–,B6
0.17,–,B7
0.07,–,B8
0.25,–,B9
15.6,–,B10
13.1,–,B11
2.01,–,B12
0.52,–,B13
0.29,–,B14
5.37,–,B15
14.1,–,B16
11.7,–,B17

"EC50, HEK-Blue IL18R reporter [1] [nM]",also measured,Binder
0.04,–,B18
0.4,–,B19
3.63,–,B20
0.98,–,B21
7.73,–,B22
3.14,–,B23
7.28,–,B24
2.02,–,B25
0.7,–,B26
6.6,–,B27
2.3,–,B28
0.02,–,B29
19.5,–,B30
1.91,–,B31
11.9,–,B32
–,Kd [2]: 14.9 nM; koff [2]: 0.000779 s⁻¹; kon [2]: 52300 M⁻¹ s⁻¹,B33
